Measured values reported in publication PMC5727262 (Scientific Reports, 2017).

Molecular target: T1, Ubc9 (wild type) (UniProt P63279 1-158)
T1 construct: Ubc9, the single SUMO conjugating enzyme (E2); the crystal structure PDB 2GRN chain a served as its model; Uniformly 15N-labelled for NMR; also called WT Ubc9; Ubc9WT; source: recombinant, purified (Ni-NTA chromatography, gel filtration)
Experiment: ITC; 2 μl additions of peptide to 200 μl of WT Ubc9 or Ac-Ubc9K65; 25 °C; pH 8.0, 20 mM potassium phosphate, 100 mM NaCl; iTC200; fitted assuming 1:1 binding stoichiometry
Settings: both partners purified

T1 sequence (P63279 whole entry): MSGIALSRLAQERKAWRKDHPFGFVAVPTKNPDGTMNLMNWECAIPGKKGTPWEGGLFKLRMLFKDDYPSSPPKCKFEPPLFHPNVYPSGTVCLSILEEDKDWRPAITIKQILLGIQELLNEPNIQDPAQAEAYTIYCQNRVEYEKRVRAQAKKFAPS

Kd: 57 µM
B1: CBP NDSM peptide (peptide)
chain: VKVEVKEEEESSSN
modifications: Synthetic peptide; true ends and caps are only in Figure 1A. Limits used here are the Psi-K-x-E core through x10 (x1-x10 = VKEEEESSSN, Supplementary Table 1), around sumoylation site K1056
